Reference: patent publication US20130079280A1

Target: Murine CD40L on the Th2 cell line D10.G4.1 (murine) (UniProt P27548)
Experiment: cell-based or functional assay

Murine CD40L on the Th2 cell line D10.G4.1 (murine), sequence (P27548 whole entry): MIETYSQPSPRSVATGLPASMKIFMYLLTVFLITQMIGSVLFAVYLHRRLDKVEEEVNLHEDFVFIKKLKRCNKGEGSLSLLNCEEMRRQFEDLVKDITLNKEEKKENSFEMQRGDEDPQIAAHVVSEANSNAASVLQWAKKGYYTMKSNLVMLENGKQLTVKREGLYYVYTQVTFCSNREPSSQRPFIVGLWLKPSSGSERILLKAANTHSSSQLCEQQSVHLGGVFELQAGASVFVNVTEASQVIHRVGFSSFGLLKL

IC50, inhibition of CD86 expression on CD19 gated B cells: 0.1 nM
Substance: MR1, anti-murine CD40L antibody
